Experiment [1] is described as follows: Fluorescence intensity assays of mFAP variants. Format: biochemical. Here is the method:
To measure fluorescence intensities of the phenolate form of chromophores, fluorescence was measured on a Synergy Neo2 hybrid multi-mode reader (BioTek) in flat bottom, black polystyrene, non-binding surface 96-well microplates (Corning 3650). Fluorescence intensity was measured in triplicate by exciting at λex = 484 nm and measuring fluorescence emission at λem = 505 nm (or λem = 511 nm for clones harboring the W27 mutation) (Supplementary Fig. 1g, h). The W27 mutation redshifts the peak emission wavelength from λem = ~505 nm to λem = ~511 nm, presumably due to the W27 indole ring donating a hydrogen bond to the imidazolinone moiety of the deprotonated state of DFHBI, which stabilizes the chromophore conjugated π–electron system in the excited state causing the redshift in emission. Fifteen microliters of small-scale purified protein[49] was combined with 185 μL of Na2HPO4-citrate (pH 7.36) buffer supplemented with 150 mM NaCl and 108 nM DFHBI for a final concentration of 100 nM DFHBI. In measuring the excitation spectra from λem = 525 nm of each clone in triplicate (Supplementary Fig. 1i), 30.0 μL of large-scale purified protein[49] was combined with 170 μL of 25.0 mM Tris (pH 8.00) supplemented with 100 mM NaCl and 914 nM DFHBI for a final concentration of 7.77 μM protein and 777 nM DFHBI. In measuring the fluorescence intensity at λex = 484 nm and λem = 509 nm of each clone in triplicate (Supplementary Fig. 1j), 30.0 μL of large-scale purified protein[49] was combined with 170 μL of 25.0 mM Tris (pH 8.00) supplemented with 100 mM NaCl and 653 nM DFHBI for a final concentration of 5.55 μM protein and 555 nM DFHBI. In measuring fluorescence intensity at λex = 468 nm and λem = 530 nm of each clone in technical triplicate (Supplementary Fig. 1k), 24.0 μL of 35.4 µM large-scale purified protein[49] was combined with 1.00 μL of 1.25 µM DFHBI or 1.00 μL of 1.25 µM DFHBI-1T (Lucerna) (from […] chromophore stock solutions dissolved in 0.5% DMSO and 99.5% high-salt Tev cleavage buffer [25.0 mM Tris, 100 mM NaCl, pH 8.00]) for final concentrations of 34.0 μM protein and 50.0 nM chromophore. The mFAP9–DFHBI complex had ~1.1-fold the fluorescence intensity of the mFAP10–DFHBI complex, and the mFAP9–DFHBI-1T complex had ~0.75-fold the fluorescence intensity of the mFAP10–DFHBI-1T complex (Supplementary Fig. 1k). In collecting fluorescence emission spectra by exciting fluorescence at λex = 484 nm and collecting fluorescence emission at λem = 495–650 nm (Supplementary Fig. 6b), and in measuring fluorescence endpoints in techincal triplicate at unique peak excitation and emission wavelengths (Supplementary Fig. 6c), 195 μL of large-scale purified protein[49] was combined with 5.00 μL of 25 mM Tris (pH 8.00) supplemented with 100 mM NaCl and 40.0 μM DFHBI for a final concentration of 10.0 μM protein and 1.00 μM DFHBI.
In measuring fluorescence intensity of small-scale purified proteins[49] (Supplementary Table 1), wells were excited at λex = 488 nm for DFHBI and DFHBI-1T and λex = 505 nm for DFHO, and fluorescence emission measured at λem = 510 nm for DFHBI and DFHBI-1T and λem = 545 nm for DFHO. […]

A short description of experiment [2]: In vitro chromophore titration with DFHBI (fluorescence, single-binding site isotherm fit). Here is the method: Fluorescence endpoints were measured on a Synergy Neo2 hybrid multi-mode reader (BioTek) in flat bottom, black polystyrene, non-binding surface 96-well microplates (Corning 3650). In measuring chromophore-binding affinities (Fig. 1d, e), mFAP2, mFAP2a, and mFAP2b, and mFAP10 were produced by large-scale protein purification and SEC purification. Proteins were aliquoted in eight technical replicates in 200 μL final volumes to 20.0 nM final concentration in ten serial dilutions ( 10 dilution factor) of DFHBI starting from 31.6 μM DFHBI or 31.6 μM DFHBI-1T final concentrations, including an eleventh condition without chromophore. Fluorescence was excited at λex = 468 nm and fluorescence emission measured at λem = 530 nm. Background fluorescence endpoints of wells with identical chromophore concentrations but purified protein replaced with an identical volume of high-salt Tev cleavage buffer were measured, and fluorescence endpoints subtracted from those measured with protein. Background-subtracted data were averaged and the means normalized from 0 to 1 and fit to a single-binding site isotherm function using non-linear least squares fitting to obtain a fitted Kd value (Table 1), and the fit scaled to the maximum mean value (Fig. 1d, e).

A short description of experiment [3]: Photophysical characterization: absorbance, excitation/emission spectra, extinction coefficients, quantum yields. Format: physicochemical. Here is the method: Protein preparation: mFAP2a, mFAP2b, and mFAP10 were produced by large-scale protein purification and SEC purification, and dialyzed overnight into DPBS that was adjusted to pH 7.40 using NaOH.
Chromophore preparation: DFHBI (Lucerna) and DFHBI-1T (Lucerna) were dissolved to 20.0 mM in 100% DMSO, and diluted in DPBS (pH 7.40) to measure absorbances on a Jasco V-750 spectrophotometer at peak absorbance wavelengths (417 nm for DFHBI and 422 nm for DFHBI-1T). Following background subtraction of identical buffer without chromophore, Beer’s Law was used to calculate the molar chromophore concentrations of the stock solutions using previously reported extinction coefficients.
Preparation of protein–chromophore complexes: For quantum yield measurements, 1.00 μM, 836 nM, or 919 nM chromophore solutions in DPBS (pH 7.40) at 4.00 mL final volumes were prepared for the following eight conditions: DFHBI only, DFHBI-1T only, 43.5 µM 6xHis-mFAP10 with DFHBI, 43.5 µM 6xHis-mFAP10 with DFHBI-1T, 134 μM 6xHis-mFAP2a with DFHBI, 134 μM 6xHis-mFAP2a with DFHBI-1T, 206 μM 6xHis-mFAP2b with DFHBI, and 206 μM 6xHis-mFAP2b with DFHBI-1T.
Extinction coefficients: Absorbance spectra of protein–chromophore complexes were first measured with a Thermo Scientific BioMate 3S UV–Vis Spectrophotometer (1 nm interval, 800 nm min^−1). The extinction coefficients were then calculated using Beer’s Law:12 A=ε⋅b⋅c, where A is peak absorbance, ε is extinction coefficient, b is path length (1 cm), and c is concentration (1.00 μM, 836 nM, or 919 nM).
Relative quantum yield: A Perkin-Elmer LS-B Luminescence Spectrophotometer (10 nm bandwidth, 1 nm interval, 100 nm min^−1) was used. The fluorescence emission spectra of the protein–chromophore complexes (in DPBS, pH 7.40) and reference dye Acridine Yellow G (in methanol) were first obtained, and the quantum yield was then calculated using the equation[53]:13 ϕc=ϕr⋅1−10^−Ar(λex)/1−10^−Ac(λex)⋅∫Fc(λ)⋅dλ/∫Fr(λ)⋅dλ⋅nc2/nr2, where ϕ is quantum yield, A(λex) is absorbance at the excitation wavelength λex ( λex = 440 nm), F is fluorescence emission, n is refractive index of the solution (1.3350 for DPBS at pH 7.40 and 1.3284 for methanol), and the subscripts “c” and “r” refer to the protein–chromophore complex measured and the reference dye, respectively. […]
Absolute quantum yield: An integrating sphere instrument (Hamamatsu C9920-12) (6 nm excitation bandwidth, 1 nm interval) and a high-sensitivity photonic multi-channel analyzer (Hamamatsu C10027-01) were used to measure a light emission spectrum. Absolute quantum yields were measured for solutions of protein–chromophore complexes in DPBS (pH 7.40) in which ≥95% of the total chromophore was occupying the protein-binding pocket (Table 1). […]

Experiment [4] in a line: Ca2+-responsive mFAP Ca2+ titrations. In kind it is binding. Here is the method: In measuring Ca^2+ affinity of mFAPs on a Synergy Neo2 hybrid multi-mode reader (Fig. 4d, e, f and Supplementary Figs. 10c, f, i, 11c, f, i, 13c, f, i, 16b), large-scale purified proteins[49] were aliquoted in technical triplicate to a final concentration of 500 nM with 5.00 μM DFHBI in eleven serial dilutions ( 10 dilution factor) of CaCl2 (Sigma Aldrich) starting from either 900 mM or 90.0 mM CaCl2 (diluted using high-salt Tev cleavage buffer) including a twelfth condition without CaCl2. Final volumes were 200 μL in flat bottom, black polystyrene, non-binding surface 96-well microplates (Corning 3650). Fluorescence endpoints were measured using excitation wavelength λex = 484 nm and emission wavelength λem = 508 nm. Background fluorescence endpoints of wells with identical chromophore and CaCl2 concentrations lacking protein (substituted for equivalent volumes of high-salt Tev cleavage buffer) were measured in technical triplicate, averaged per condition, and subtracted from protein measurement averages of the same conditions.
For Ca^2+ titrations of EF4n_mFAP2a and EF4n_mFAP2b (Supplementary Fig. 13c), a small amount of Chelex 100 sodium form (Sigma Aldrich) was added to purified protein (produced by large-scale protein purification and SEC purification[49]) and nutated at 4 °C overnight. EF4n_mFAP2a was aliquoted in technical triplicate to a final concentration of 8.00 μM with 80.0 μM DFHBI and EF4n_mFAP2b was aliquoted in technical triplicate to a final concentration of 6.25 μM with 43.4 μM DFHBI, in eleven serial dilutions ( 10 dilution factor) of CaCl2 starting from 9.00 mM or 4.00 mM CaCl2 (diluted using high-salt Tev cleavage buffer pre-treated with Chelex 100) including a twelfth condition without CaCl2. Final volumes were 25.0 μL in flat bottom, black polystyrene, non-binding surface 96-well half-area microplates (Corning 3686) or 200 μL in flat bottom, black polystyrene, non-binding surface 96-well microplates (Corning 3650). Fluorescence endpoints were measured for EF4n_mFAP2a using excitation wavelength λex = 478 nm and emission wavelength λem = 520 nm, and for EF4n_mFAP2b using excitation wavelength λex = 484 nm and emission wavelength λem = 508 nm. Background fluorescence endpoints of wells with identical chromophore and CaCl2 concentrations lacking protein (substituted for equivalent volumes of high-salt Tev cleavage buffer) were measured in technical triplicate, averaged per condition, and subtracted from protein measurement averages of the same conditions. For non-linear least squares fitting to obtain Kd values, means were fit to a single-binding site isotherm function where Ca^2+-binding sites were modeled independently with a Hill coefficient of 1.

Where a chain is given by its changes, count along the chain named.

B1: mFAP2a: mFAP2 variant, "a" for affinity (protein)
chain: SRAAQLLPGTWQATFTNEDGQTSQGQWHFQPRSPYTMDIVAQGTISDGRPIVGYGKATVKTPDTLDIDITYPSLGNIKAQGQITMDSPTQFKWDATTKGENDFHGRLTGTLQRQE
Turning to B1, in experiment [1] (low-DFHBI concentration (555 nM)), the “brighter fluorescence than mFAP2b” value is recorded as ~ 1.3 fold. Moreover, in experiment [2], the “higher affinity for DFHBI than DFHBI-1T” value was ~ 39 fold. For the same molecule, in experiment [3], the “brighter fluorescence with DFHBI-1T than DFHBI” value was ~ 2.5 fold.

B2: mFAP2.3: brightest variant of loop7 library (protein)
chain: B1 chain with A13V, F15M, W27M, I39V, A57V, I67V, W93F
For the molecule B2, the “increase in fluorescence intensity from the phenolate form of DFHBI from mFAP2.2” value in experiment [1] (pH 7.36) was ~ 1.1 fold.

B3: mFAP3: brightest DFHO-binding variant (protein)
chain: B1 chain with Y71W, A79G, A95G
As for B3, the “fluorescence intensity with DFHO, lower (dimmer) than mFAP2b with DFHBI” value in experiment [1] (10.0 µM DFHO vs 10.0 µM DFHBI) is ~ 10 fold.

B4: mFAP10: variant from the IN2 combinatorial library (protein)
chain: B1 chain with W27I, W93F
For B4, the “higher affinity for DFHBI than DFHBI-1T” value in experiment [2] is ~ 2.6 fold. Moreover, the “brighter fluorescence with DFHBI-1T than DFHBI” value in experiment [3] is reported as ~ 12 fold.

B5: EF1p2_mFAP2b: positively allosteric Ca2+-responsive mFAP, one EF-hand motif (protein)
chain: SRAAQLLPGTWQVTMTNEDGQTSQGQWHFQPRSPYTMDIVAQGTISDGRPIVGYGKATVKTPDTLDIDITYPSLGNIKAQGQITMDSPTQFKWDAHYKGDKDGDGYISAAEAAAQGLTGTLQRQE
As usually defined, the Kd is the concentration at which binding is half-saturated. Regarding B5, the “Ca2+-responsiveness / allostery between DFHBI and Ca2+ binding” value in experiment [4] (Ca2+ titration with excess DFHBI) is “positive allostery”. Also, in experiment [4] (excess DFHBI compared to protein, Hill coefficient of 1), the Kd is 2300 µM.

Source of the values: paper PMC7870846, “Incorporation of sensing modalities into de novo designed fluorescence-activating proteins” (Nature Communications, 2021).
